What was measured:
AncSZ = experiment: phosphorylation enrichment, bacterial display (enrichment ratio); higher = better substrate or ligand; peptides without Tyr show the background
EPHB1 = EPHB1 (UniProt P54762); experiment: as above
EPHB2 = EPHB2 (UniProt P29323); experiment: as above
FGFR1 = FGFR1 (UniProt P11362); experiment: as above
FGFR3 = FGFR3 (UniProt P22607); experiment: as above
Fer (mouse) = experiment: as above
Fes = Fes (UniProt P07332); experiment: as above
Fyn = Fyn (UniProt P06241); experiment: as above
Hck = Hck (UniProt P08631); experiment: as above
Jak2 = Jak2 (UniProt O60674); experiment: as above
MERTK = MERTK (UniProt Q12866); experiment: as above
c-Abl (mouse) = experiment: as above
c-Src = experiment: as above
Grb2 SH2 = Grb2 SH2 (UniProt P62993); experiment: SH2 binding enrichment of the phosphorylated peptide, bacterial display (enrichment ratio); higher = better substrate or ligand; peptides without Tyr show the background
SHP2-C SH2 = experiment: as above
c-Src SH2 = experiment: as above
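Throughout, for SH2 binding enrichment of the phosphorylated peptide, bacterial display: peptide library displayed on the E. coli surface as eCPX fusions, selected cells deep-sequenced, score is each peptide's frequency after selection divided by its frequency in the input.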
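Throughout, for phosphorylation enrichment, bacterial display: 11-residue human phosphosite peptides and single-mutation variants displayed on the E. coli surface, counted by deep sequencing, each peptide's frequency after selection divided by its frequency in the unselected input library; frequency after pTyr selection over input frequency; kinase dosed for 20-30% of maximal phosphorylation in three min.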

Sequence of EPHB2 (P29323 whole entry, looked up): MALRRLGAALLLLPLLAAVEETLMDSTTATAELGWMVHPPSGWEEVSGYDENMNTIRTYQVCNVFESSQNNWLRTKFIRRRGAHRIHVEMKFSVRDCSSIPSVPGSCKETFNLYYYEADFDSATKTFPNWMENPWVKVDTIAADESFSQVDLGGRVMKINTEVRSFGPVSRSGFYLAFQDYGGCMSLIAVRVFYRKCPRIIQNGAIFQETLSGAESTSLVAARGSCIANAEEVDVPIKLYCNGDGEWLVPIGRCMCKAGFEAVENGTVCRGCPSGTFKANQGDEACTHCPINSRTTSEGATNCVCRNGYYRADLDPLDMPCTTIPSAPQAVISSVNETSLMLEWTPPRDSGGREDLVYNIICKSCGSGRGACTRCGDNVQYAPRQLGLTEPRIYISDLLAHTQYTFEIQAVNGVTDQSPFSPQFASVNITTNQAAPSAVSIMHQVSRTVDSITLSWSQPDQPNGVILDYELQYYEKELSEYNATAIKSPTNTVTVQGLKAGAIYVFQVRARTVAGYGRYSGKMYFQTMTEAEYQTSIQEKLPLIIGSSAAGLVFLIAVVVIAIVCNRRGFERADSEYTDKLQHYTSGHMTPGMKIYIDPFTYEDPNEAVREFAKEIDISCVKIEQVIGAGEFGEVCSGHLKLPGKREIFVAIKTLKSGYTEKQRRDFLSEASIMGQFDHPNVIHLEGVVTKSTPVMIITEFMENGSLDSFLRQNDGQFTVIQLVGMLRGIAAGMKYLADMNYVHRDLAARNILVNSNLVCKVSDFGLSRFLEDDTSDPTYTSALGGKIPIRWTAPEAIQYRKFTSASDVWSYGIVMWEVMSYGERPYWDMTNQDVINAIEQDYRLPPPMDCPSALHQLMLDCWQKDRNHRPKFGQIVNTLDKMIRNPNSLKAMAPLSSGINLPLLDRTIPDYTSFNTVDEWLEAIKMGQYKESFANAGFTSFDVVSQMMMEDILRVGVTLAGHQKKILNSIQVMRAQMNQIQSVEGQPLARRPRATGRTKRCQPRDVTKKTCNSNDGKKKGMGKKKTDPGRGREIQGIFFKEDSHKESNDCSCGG
Sequence of Fyn (P06241 whole entry, looked up): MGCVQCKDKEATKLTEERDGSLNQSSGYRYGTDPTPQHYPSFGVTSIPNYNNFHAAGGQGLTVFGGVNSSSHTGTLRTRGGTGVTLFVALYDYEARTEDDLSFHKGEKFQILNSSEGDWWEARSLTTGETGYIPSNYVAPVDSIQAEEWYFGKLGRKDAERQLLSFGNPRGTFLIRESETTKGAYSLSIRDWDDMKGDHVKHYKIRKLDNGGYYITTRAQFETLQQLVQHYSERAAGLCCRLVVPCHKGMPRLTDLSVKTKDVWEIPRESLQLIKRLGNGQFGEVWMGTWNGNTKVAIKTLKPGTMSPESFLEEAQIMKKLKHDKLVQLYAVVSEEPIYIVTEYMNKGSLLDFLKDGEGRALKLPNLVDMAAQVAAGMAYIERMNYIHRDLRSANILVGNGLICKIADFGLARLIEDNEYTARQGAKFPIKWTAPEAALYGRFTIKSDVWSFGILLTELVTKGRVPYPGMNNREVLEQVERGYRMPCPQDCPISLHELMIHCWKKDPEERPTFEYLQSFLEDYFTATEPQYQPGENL
Sequence of Fes (P07332 whole entry, looked up): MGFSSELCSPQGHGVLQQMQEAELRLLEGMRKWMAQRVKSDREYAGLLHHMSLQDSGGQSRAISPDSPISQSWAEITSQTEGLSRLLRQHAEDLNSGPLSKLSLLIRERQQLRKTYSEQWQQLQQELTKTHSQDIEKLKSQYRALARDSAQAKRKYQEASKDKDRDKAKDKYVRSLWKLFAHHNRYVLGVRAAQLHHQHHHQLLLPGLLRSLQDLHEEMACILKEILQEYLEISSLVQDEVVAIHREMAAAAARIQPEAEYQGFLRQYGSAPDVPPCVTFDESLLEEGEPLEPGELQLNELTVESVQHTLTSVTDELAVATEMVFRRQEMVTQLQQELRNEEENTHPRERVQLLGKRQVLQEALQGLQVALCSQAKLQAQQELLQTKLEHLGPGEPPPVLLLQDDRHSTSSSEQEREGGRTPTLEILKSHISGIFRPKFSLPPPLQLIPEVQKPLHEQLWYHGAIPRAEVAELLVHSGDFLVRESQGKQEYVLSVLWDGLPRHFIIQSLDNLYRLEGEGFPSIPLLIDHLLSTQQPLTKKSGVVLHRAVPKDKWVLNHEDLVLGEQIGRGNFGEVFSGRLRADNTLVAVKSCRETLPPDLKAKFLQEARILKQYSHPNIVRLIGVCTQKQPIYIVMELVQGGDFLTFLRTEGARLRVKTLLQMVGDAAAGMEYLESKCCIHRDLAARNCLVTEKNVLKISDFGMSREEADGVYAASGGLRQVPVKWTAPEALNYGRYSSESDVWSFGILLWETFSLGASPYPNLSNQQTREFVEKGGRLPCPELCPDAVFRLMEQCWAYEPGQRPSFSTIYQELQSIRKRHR
Sequence of MERTK (Q12866 whole entry, looked up): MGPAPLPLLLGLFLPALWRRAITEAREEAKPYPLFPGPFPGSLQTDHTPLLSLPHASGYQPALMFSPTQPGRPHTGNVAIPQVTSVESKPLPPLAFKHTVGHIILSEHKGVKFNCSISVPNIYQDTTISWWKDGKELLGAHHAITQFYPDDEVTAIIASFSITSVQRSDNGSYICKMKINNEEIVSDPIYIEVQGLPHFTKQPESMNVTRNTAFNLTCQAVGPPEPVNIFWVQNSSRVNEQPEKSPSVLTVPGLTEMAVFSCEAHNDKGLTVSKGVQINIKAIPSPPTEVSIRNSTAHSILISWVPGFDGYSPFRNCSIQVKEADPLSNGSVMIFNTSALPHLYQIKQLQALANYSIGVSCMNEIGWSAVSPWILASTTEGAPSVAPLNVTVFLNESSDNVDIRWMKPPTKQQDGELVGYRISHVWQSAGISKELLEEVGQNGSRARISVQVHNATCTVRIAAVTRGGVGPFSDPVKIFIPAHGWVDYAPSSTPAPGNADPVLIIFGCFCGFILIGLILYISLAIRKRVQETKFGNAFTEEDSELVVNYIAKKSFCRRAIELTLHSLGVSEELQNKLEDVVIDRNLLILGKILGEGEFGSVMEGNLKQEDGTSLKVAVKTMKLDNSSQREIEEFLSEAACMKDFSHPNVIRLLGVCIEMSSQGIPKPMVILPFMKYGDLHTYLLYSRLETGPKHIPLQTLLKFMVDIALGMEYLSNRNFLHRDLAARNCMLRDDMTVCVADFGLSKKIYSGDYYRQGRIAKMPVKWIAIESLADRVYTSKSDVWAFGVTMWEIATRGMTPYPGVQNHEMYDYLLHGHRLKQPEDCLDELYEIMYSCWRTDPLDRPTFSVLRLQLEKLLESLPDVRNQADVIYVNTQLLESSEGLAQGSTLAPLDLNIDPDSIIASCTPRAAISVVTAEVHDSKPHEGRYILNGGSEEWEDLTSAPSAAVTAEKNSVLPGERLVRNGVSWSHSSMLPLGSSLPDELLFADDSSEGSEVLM
Sequence of Hck (P08631 whole entry, looked up): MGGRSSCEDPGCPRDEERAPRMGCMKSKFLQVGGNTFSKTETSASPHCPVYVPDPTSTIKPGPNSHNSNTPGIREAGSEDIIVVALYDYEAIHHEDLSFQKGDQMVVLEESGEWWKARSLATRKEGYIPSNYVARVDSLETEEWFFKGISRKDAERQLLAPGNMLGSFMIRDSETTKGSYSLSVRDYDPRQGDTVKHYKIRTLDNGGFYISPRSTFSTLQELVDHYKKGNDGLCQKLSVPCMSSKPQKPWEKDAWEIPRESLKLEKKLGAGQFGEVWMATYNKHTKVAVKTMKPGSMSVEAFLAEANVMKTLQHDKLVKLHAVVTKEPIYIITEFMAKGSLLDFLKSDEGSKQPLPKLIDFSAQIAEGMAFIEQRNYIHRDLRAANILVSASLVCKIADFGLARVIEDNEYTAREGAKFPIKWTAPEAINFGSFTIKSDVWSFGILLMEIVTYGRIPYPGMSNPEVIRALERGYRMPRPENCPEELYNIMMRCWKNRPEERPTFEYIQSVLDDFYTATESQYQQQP
Sequence of FGFR1 (P11362 whole entry, looked up): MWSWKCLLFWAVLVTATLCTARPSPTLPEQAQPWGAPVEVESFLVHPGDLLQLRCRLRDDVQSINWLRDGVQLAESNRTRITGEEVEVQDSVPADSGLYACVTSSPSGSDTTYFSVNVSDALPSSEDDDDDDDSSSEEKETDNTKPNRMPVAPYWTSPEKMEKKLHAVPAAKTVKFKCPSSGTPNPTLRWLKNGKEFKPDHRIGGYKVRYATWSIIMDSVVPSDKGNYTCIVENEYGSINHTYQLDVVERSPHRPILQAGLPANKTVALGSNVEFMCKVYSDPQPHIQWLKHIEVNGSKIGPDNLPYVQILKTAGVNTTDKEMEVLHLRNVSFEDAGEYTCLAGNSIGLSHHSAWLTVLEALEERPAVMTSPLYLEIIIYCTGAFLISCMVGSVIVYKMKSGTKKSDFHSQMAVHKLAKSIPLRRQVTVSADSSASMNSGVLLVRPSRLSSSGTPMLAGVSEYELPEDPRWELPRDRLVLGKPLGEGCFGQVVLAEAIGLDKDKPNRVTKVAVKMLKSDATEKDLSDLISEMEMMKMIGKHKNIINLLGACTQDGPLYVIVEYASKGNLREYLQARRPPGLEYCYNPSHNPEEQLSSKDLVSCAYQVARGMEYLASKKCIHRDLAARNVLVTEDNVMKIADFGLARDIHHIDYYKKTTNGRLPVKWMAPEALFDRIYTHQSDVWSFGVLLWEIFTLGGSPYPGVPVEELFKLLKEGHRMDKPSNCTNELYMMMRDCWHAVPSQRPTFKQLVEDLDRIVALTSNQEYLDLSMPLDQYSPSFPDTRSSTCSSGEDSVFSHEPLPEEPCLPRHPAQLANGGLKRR

Sequence | SH2 binding enrichment (Grb2 SH2) | SH2 binding enrichment (SHP2-C SH2) | SH2 binding enrichment (c-Src SH2) | phosphorylation enrichment (AncSZ) | phosphorylation enrichment (EPHB1) | phosphorylation enrichment (EPHB2) | phosphorylation enrichment (FGFR1) | phosphorylation enrichment (FGFR3) | phosphorylation enrichment (Fer (mouse)) | phosphorylation enrichment (Fes) | phosphorylation enrichment (Fyn) | phosphorylation enrichment (Hck) | phosphorylation enrichment (Jak2) | phosphorylation enrichment (MERTK) | phosphorylation enrichment (c-Abl (mouse)) | phosphorylation enrichment (c-Src)
PQIVNYSPDCI [LDHB_Y128_K127N] | 0.891 | 0.492 | 0.506 | 0.415 | 0.668 | 0.451 | 0.684 | 0.939 | 0.83 | 0.824 | 0.457 | 1 | 0.254 | 0.179 | 0.216 | 0.387
PRPACYPSTVS [CACNA1C_Y1832_G1831C] | 0.865 | 0.8 | 0.65 | 0.554 | 0.575 | 0.435 | 0.49 | 0.598 | 0.381 | 0.792 | 0.51 | 0.49 | 0.721 | 0.356 | 0.437 | 0.484
PSRKDYETYQP [CTNND2_Y1154] | 0.905 | 0.818 | 0.597 | 1.04 | 1.49 | 2.62 | 0.592 | 0.695 | 0.485 | 1.02 | 0.55 | 0.873 | 0.677 | 0.6 | 0.95 | 0.62
PTATSYNPNLA [GABRA1_Y375_T376N] | 0.847 | 0.82 | 0.617 | 1.39 | 0.808 | 0.607 | 0.864 | 0.878 | 0.824 | 1.34 | 0.748 | 0.621 | 1.55 | 1.06 | 1.57 | 1.43
PVEAAYQKVVA [HBB_Y131_Q128E] | 0.725 | 0.713 | 0.964 | 0.819 | 0.397 | 0.401 | 0.573 | 0.617 | 0.558 | 0.695 | 0.56 | 0.612 | 0.556 | 0.52 | 0.601 | 0.517
PYSSPYENSLI [EPOR_Y489_N487S] | 2.51 | 0.773 | 5.18 | 0.83 | 0.39 | 0.596 | 0.527 | 0.506 | 2.52 | 0.924 | 0.668 | 0.705 | 0.929 | 0.683 | 0.902 | 0.875
QEITTYRRLLE [KRT14_Y415_A413T] | 0.915 | 0.598 | 0.493 | 1.03 | 0.619 | 0.548 | 0.657 | 0.78 | 0.505 | 1.11 | 0.708 | 0.542 | 1.07 | 0.416 | 0.815 | 0.649
QFPDIYAREEV [CRX_Y67_V66I_YF] | 1.02 | 0.9 | 0.525 | 1.82 | 0.628 | 1.21 | 1.15 | 1.26 | 0.707 | 1.91 | 0.959 | 1.56 | 2.02 | 0.773 | 0.99 | 1.23
QGIPRYHSQSP [FOXF1_Y331] | 0.733 | 0.562 | 0.537 | 1.01 | 0.783 | 0.849 | 0.821 | 0.677 | 0.744 | 1.58 | 0.796 | 1.02 | 0.691 | 1.22 | 1.4 | 1.08
QHNPEYVQQAS [LRRC7_Y1058] | 0.712 | 0.64 | 0.561 | 0.843 | 0.542 | 0.604 | 0.486 | 0.65 | 0.73 | 0.867 | 0.486 | 0.69 | 0.544 | 0.423 | 0.641 | 0.597

Second part, led by results:

SH2 binding enrichment (Grb2 SH2) | SH2 binding enrichment (SHP2-C SH2) | SH2 binding enrichment (c-Src SH2) | Sequence | phosphorylation enrichment (AncSZ) | phosphorylation enrichment (EPHB1) | phosphorylation enrichment (EPHB2) | phosphorylation enrichment (FGFR1) | phosphorylation enrichment (FGFR3) | phosphorylation enrichment (Fer (mouse)) | phosphorylation enrichment (Fes) | phosphorylation enrichment (Fyn) | phosphorylation enrichment (Hck) | phosphorylation enrichment (Jak2) | phosphorylation enrichment (MERTK) | phosphorylation enrichment (c-Abl (mouse)) | phosphorylation enrichment (c-Src)
0.753 | 0.631 | 0.405 | PRDGEYFTLQI [TP53_Y327_L323R] | 2.81 | 1.31 | 1.19 | 11.7 | 8.55 | 0.775 | 1.38 | 2.55 | 2.14 | 3.26 | 0.93 | 1.75 | 3.76
0.936 | 1.15 | 0.655 | PSQRRYLFFFS [PTEN_Y174_V175L_YF] | 1.86 | 0.818 | 0.804 | 0.607 | 0.915 | 0.531 | 1.93 | 0.753 | 0.716 | 1.74 | 0.756 | 0.991 | 0.441
1.75 | 0.663 | 2.47 | PTYEHYANSTQ [SLC12A3_Y70] | 1.05 | 1.2 | 2.33 | 0.492 | 0.807 | 0.828 | 1.2 | 2.56 | 1.53 | 0.924 | 0.912 | 0.753 | 5.29
0.665 | 4.74 | 1.95 | PVKSEYSSIKL [NPC2_Y119_P120S] | 0.783 | 0.579 | 0.533 | 0.518 | 0.523 | 0.702 | 1.06 | 0.553 | 1.11 | 0.737 | 0.5 | 1.03 | 0.602
0.747 | 0.525 | 0.434 | QELRRYLKSGI [MICA_Y194_V199I] | 0.489 | 0.332 | 0.281 | 0.429 | 0.313 | 0.534 | 0.458 | 0.482 | 0.496 | 0.335 | 0.406 | 0.402 | 0.294
0.776 | 0.633 | 0.494 | QHVPDYRQNGF [PCDHGA1_Y890_V894G_YF] | 0.787 | 0.589 | 0.459 | 0.55 | 0.597 | 0.503 | 0.875 | 0.531 | 0.455 | 0.826 | 0.464 | 0.758 | 0.543
